For series [1], the target named is T1, IcaR wild type (Staphylococcus epidermidis ATCC 35984 …, UniProt Q5HKQ1 1-185).
T1 sequence: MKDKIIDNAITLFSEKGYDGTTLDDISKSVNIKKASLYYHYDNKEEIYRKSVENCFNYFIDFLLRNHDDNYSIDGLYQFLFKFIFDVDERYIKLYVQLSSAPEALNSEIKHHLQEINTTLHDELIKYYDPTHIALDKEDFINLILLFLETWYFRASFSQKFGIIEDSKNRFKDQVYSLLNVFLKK
Kind of series: EMSA. On the technique in general: Mobility shift assays separate free from complexed probe on a gel.

For another series, the target named is T2, IcaR K33E (Staphylococcus epidermidis ATCC 35984 …, UniProt Q5HKQ1 1-185, K33E).
T2 sequence: T1 sequence with K33E
Kind of series: ITC.

The target in series [2] is T1, IcaR wild type. Nature of the series: EMSA. The source holds these as a separate data set.

Substitutions are numbered along the chain they refer to. Where two headings read alike, the source gives them in different places.

B1: 16 bp probe (same center as 28E) (dsDNA)
DNA 1: TAACTAACGAAAGGTA
DNA 2: TACCTTTCGTTAGTTA
On to B1, for which the binding result in the series with IcaR wild type [1] is listed as “no binding”.

B2: 28E (dsDNA)
DNA 1: ACAACCTAACTAACGAAAGGTAGGTGAA
DNA 2: TTCACCTACCTTTCGTTAGTTAGGTTGT
Turning to B2, the binding result with IcaR K33E is “no binding”.

B3: 24E (dsDNA)
DNA 1: AACCTAACTAACGAAAGGTAGGTG
DNA 2: CACCTACCTTTCGTTAGTTAGGTT
Regarding B3, the binding result with IcaR wild type [2] is reported as “binds”.

For the origin of these results see paper PMC2275139.
